The supplement of paper PMC9112550, “Optimization of the antimicrobial peptide Bac7 by deep mutational scanning” (BMC Biology, 2022)

Tested on: Escherichia coli TOP10
Assay: shrunken log2 fold change of peptide-encoding DNA abundance (4.5 h post-induction vs induction); higher = less antimicrobial activity (less host growth inhibition)
Conditions: time post-induction: 4.5 h; library: site-saturation at positions 5, 18, 19, 20
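Further: peptides expressed intracellularly from a pBAD plasmid library in pooled LB shake-flask culture, induced with 0.3% L-arabinose, DNA abundance read by NGS, three biological replicates, DESeq2 with apeglm shrinkage.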

Row | Sequence | shrunken log2 fold change
1 | RRIRFRPPRLPRPRPRPIGNPRP | -0.501
2 | RRIRFRPPRLPRPRPRPIHCPRP | -0.138
3 | RRIRFRPPRLPRPRPRPIHEPRP | -0.169
4 | RRIRFRPPRLPRPRPRPIHKPRP | -0.775
5 | RRIRFRPPRLPRPRPRPIHWPRP | -0.414
6 | RRIRFRPPRLPRPRPRPIIKPRP | -0.696
7 | RRIRFRPPRLPRPRPRPIKHPRP | -0.485
8 | RRIRFRPPRLPRPRPRPILRPRP | -0.156
9 | RRIRFRPPRLPRPRPRPIMWPRP | 0.0691
10 | RRIRFRPPRLPRPRPRPINAPRP | 0.00976
11 | RRIRFRPPRLPRPRPRPINRPRP | 0.0882
12 | RRIRFRPPRLPRPRPRPIPAPRP | -0.15
13 | RRIRFRPPRLPRPRPRPIQPPRP | 0.137
14 | RRIRFRPPRLPRPRPRPIQYPRP | -0.451
15 | RRIRFRPPRLPRPRPRPIRAPRP | -0.0742
16 | RRIRFRPPRLPRPRPRPIRFPRP | -0.233
17 | RRIRFRPPRLPRPRPRPIRRPRP | 0.0321
18 | RRIRFRPPRLPRPRPRPIRSPRP | -0.0101
19 | RRIRFRPPRLPRPRPRPISMPRP | -0.137
20 | RRIRFRPPRLPRPRPRPITLPRP | -0.274
21 | RRIRFRPPRLPRPRPRPITWPRP | -0.972
22 | RRIRFRPPRLPRPRPRPIWNPRP | -0.147
23 | RRIRFRPPRLPRPRPRPKARPRP | 0.297
24 | RRIRFRPPRLPRPRPRPKAWPRP | 0.0254
25 | RRIRFRPPRLPRPRPRPKCEPRP | 0.051

Row | Sequence | shrunken log2 fold change
26 | RRIRFRPPRLPRPRPRPKDHPRP | -0.179
27 | RRIRFRPPRLPRPRPRPKDIPRP | -0.676
28 | RRIRFRPPRLPRPRPRPKDKPRP | -0.223
29 | RRIRFRPPRLPRPRPRPKERPRP | 0.193
30 | RRIRFRPPRLPRPRPRPKFAPRP | 0.102
31 | RRIRFRPPRLPRPRPRPKGHPRP | 0.0587
32 | RRIRFRPPRLPRPRPRPKGLPRP | -0.146
33 | RRIRFRPPRLPRPRPRPKGRPRP | -0.0884
34 | RRIRFRPPRLPRPRPRPKHGPRP | 0.405
35 | RRIRFRPPRLPRPRPRPKHRPRP | -0.094
36 | RRIRFRPPRLPRPRPRPKHVPRP | -0.0891
37 | RRIRFRPPRLPRPRPRPKIAPRP | -0.0112
38 | RRIRFRPPRLPRPRPRPKKHPRP | -0.264
39 | RRIRFRPPRLPRPRPRPKMAPRP | -0.0582
40 | RRIRFRPPRLPRPRPRPKMEPRP | -0.028
41 | RRIRFRPPRLPRPRPRPKMKPRP | 0.0379
42 | RRIRFRPPRLPRPRPRPKNEPRP | -0.137
43 | RRIRFRPPRLPRPRPRPKPRPRP | 0.886
44 | RRIRFRPPRLPRPRPRPKQNPRP | 0.249
45 | RRIRFRPPRLPRPRPRPKRAPRP | 0.244
46 | RRIRFRPPRLPRPRPRPKRFPRP | 0.0111
47 | RRIRFRPPRLPRPRPRPKRLPRP | 0.0144
48 | RRIRFRPPRLPRPRPRPKRMPRP | 0.133
49 | RRIRFRPPRLPRPRPRPKRSPRP | 1.12
50 | RRIRFRPPRLPRPRPRPKSGPRP | 0.0565

Row | Sequence | shrunken log2 fold change
51 | RRIRFRPPRLPRPRPRPKSQPRP | -0.0404
52 | RRIRFRPPRLPRPRPRPKSRPRP | -0.0938
53 | RRIRFRPPRLPRPRPRPKTCPRP | 0.0353
54 | RRIRFRPPRLPRPRPRPKTQPRP | 0.397
55 | RRIRFRPPRLPRPRPRPKTTPRP | 0.142
56 | RRIRFRPPRLPRPRPRPKWHPRP | -0.0786
57 | RRIRFRPPRLPRPRPRPKYHPRP | -0.428
58 | RRIRFRPPRLPRPRPRPKYIPRP | -0.678
59 | RRIRFRPPRLPRPRPRPKYTPRP | -0.657
60 | RRIRFRPPRLPRPRPRPLAQPRP | 0.097
61 | RRIRFRPPRLPRPRPRPLCYPRP | -0.557
62 | RRIRFRPPRLPRPRPRPLDEPRP | -0.132
63 | RRIRFRPPRLPRPRPRPLDPPRP | 0.0688
64 | RRIRFRPPRLPRPRPRPLEVPRP | 0.0238
65 | RRIRFRPPRLPRPRPRPLFRPRP | -0.372
66 | RRIRFRPPRLPRPRPRPLGLPRP | -0.0983
67 | RRIRFRPPRLPRPRPRPLILPRP | -0.739
68 | RRIRFRPPRLPRPRPRPLKCPRP | -0.189
69 | RRIRFRPPRLPRPRPRPLLMPRP | -0.564
70 | RRIRFRPPRLPRPRPRPLMFPRP | -0.695
71 | RRIRFRPPRLPRPRPRPLNCPRP | -0.125
72 | RRIRFRPPRLPRPRPRPLNIPRP | -0.594
73 | RRIRFRPPRLPRPRPRPLPDPRP | 0.138
74 | RRIRFRPPRLPRPRPRPLPFPRP | -0.452
75 | RRIRFRPPRLPRPRPRPLPSPRP | 0.0283
